One substance from paper PMC4230587 can be followed below.

The assay concerns the target RSA-2 (C. elegans (endogenous in embryos)) (UniProt G5EFV3). Put plainly: co-IP.
Sequence of UniProt G5EFV3 (G5EFV3 whole entry): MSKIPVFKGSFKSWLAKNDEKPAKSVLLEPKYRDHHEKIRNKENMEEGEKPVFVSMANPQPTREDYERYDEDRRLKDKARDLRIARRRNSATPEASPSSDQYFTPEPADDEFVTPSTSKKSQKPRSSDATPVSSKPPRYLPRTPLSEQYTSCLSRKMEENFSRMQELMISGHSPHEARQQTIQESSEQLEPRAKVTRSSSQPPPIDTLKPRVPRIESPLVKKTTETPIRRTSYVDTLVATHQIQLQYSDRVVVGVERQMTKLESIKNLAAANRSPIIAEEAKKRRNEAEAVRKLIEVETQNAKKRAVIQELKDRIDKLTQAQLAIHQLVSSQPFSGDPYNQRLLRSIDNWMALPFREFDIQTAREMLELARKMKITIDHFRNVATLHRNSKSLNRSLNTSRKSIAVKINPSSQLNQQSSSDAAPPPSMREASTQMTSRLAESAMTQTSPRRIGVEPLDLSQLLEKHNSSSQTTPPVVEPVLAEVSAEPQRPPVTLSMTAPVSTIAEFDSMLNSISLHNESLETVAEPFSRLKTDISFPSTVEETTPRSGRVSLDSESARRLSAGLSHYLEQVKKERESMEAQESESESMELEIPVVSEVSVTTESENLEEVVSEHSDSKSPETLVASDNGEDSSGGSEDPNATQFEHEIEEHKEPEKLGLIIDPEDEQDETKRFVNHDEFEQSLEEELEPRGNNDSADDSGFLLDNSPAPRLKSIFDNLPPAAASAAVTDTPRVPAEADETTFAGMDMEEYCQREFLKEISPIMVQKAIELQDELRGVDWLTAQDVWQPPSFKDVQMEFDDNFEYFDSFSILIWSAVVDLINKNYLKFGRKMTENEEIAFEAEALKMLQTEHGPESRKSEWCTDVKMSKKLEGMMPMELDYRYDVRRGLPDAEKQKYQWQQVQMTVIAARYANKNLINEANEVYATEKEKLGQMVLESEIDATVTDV

“SPD-5 (from UniProt P91349 1-1198) (natural protein)” had a percent of total protein co-immunoprecipitated of 20%.
